± gives the uncertainty stated by the source.

A short description of the data set: abundance fitness (aPCA) (normalised: wild type 0, dead -1); higher = more abundant; growth selection in yeast, the domain comes from the species named. Conditions: Homo sapiens.
Regarding “Scaffold attachment factor B1 E74P, Q15424”, the abundance fitness was -0.309 ± 0.063.

On to “Scaffold attachment factor B1 E74Q, Q15424”, for which the abundance fitness is -0.32 ± 0.088.

Take “Scaffold attachment factor B1 E74R, Q15424”: the abundance fitness is -0.074 ± 0.051.

On to “Scaffold attachment factor B1 E74S, Q15424”, for which the abundance fitness is -0.053 ± 0.053.

As for “Scaffold attachment factor B1 E74T, Q15424”, the abundance fitness is -0.183 ± 0.083.

As for “Scaffold attachment factor B1 E74V, Q15424”, the abundance fitness is -0.157 ± 0.055.

Turning to “Scaffold attachment factor B1 E74W, Q15424”, the abundance fitness is -0.135 ± 0.055.

Turning to “Scaffold attachment factor B1 E74Y, Q15424”, the abundance fitness is -0.226 ± 0.09.

Take “Scaffold attachment factor B1 E76A, Q15424”: the abundance fitness is -0.161 ± 0.064.

Turning to “Scaffold attachment factor B1 E76C, Q15424”, the abundance fitness was -0.113 ± 0.054.

On to “Scaffold attachment factor B1 E76G, Q15424”, for which the abundance fitness was -0.096 ± 0.053.

Consider “Scaffold attachment factor B1 E76I, Q15424”, for which the abundance fitness is -0.291 ± 0.093.

In the case of “Scaffold attachment factor B1 E76K, Q15424”, the abundance fitness is -0.294 ± 0.096.

Take “Scaffold attachment factor B1 E76L, Q15424”: the abundance fitness is -0.199 ± 0.062.

As to “Scaffold attachment factor B1 E76M, Q15424”, the abundance fitness was -0.2 ± 0.086.

For “Scaffold attachment factor B1 E76N, Q15424”, the abundance fitness was -0.169 ± 0.067.

As for “Scaffold attachment factor B1 E76P, Q15424”, the abundance fitness was -0.069 ± 0.083.

Turning to “Scaffold attachment factor B1 E76Q, Q15424”, the abundance fitness is -0.415 ± 0.088.

On to “Scaffold attachment factor B1 E76R, Q15424”, for which the abundance fitness was -0.055 ± 0.054.

For the substance “Scaffold attachment factor B1 E76T, Q15424”, the abundance fitness was -0.195 ± 0.073.

As to “Scaffold attachment factor B1 E76V, Q15424”, the abundance fitness was -0.044 ± 0.049.

On to “Scaffold attachment factor B1 E76W, Q15424”, for which the abundance fitness was -0.305 ± 0.07.

On to “Scaffold attachment factor B1 E76Y, Q15424”, for which the abundance fitness was -0.175 ± 0.056.

With “Scaffold attachment factor B1 E80A, Q15424”, the abundance fitness was -0.055 ± 0.051.

For the substance “Scaffold attachment factor B1 E80D, Q15424”, the abundance fitness is -0.323 ± 0.14.

“Scaffold attachment factor B1 E80G, Q15424”: the abundance fitness was -0.151 ± 0.085.

As for “Scaffold attachment factor B1 E80K, Q15424”, the abundance fitness was -0.889 ± 0.25.

Regarding “Scaffold attachment factor B1 E80M, Q15424”, the abundance fitness was -0.361 ± 0.19.

Turning to “Scaffold attachment factor B1 E80N, Q15424”, the abundance fitness was -0.513 ± 0.43.

As to “Scaffold attachment factor B1 E80Q, Q15424”, the abundance fitness is -0.274 ± 0.1.

With “Scaffold attachment factor B1 E80R, Q15424”, the abundance fitness is -0.443 ± 0.092.

With “Scaffold attachment factor B1 E80T, Q15424”, the abundance fitness was -0.675 ± 0.2.

As for “Scaffold attachment factor B1 E80V, Q15424”, the abundance fitness is -0.223 ± 0.059.

On to “Scaffold attachment factor B1 E80W, Q15424”, for which the abundance fitness was -0.409 ± 0.15.

As to “Scaffold attachment factor B1 G27A, Q15424”, the abundance fitness is -0.257 ± 0.061.

In the case of “Scaffold attachment factor B1 G27D, Q15424”, the abundance fitness was -0.027 ± 0.08.

With “Scaffold attachment factor B1 G27E, Q15424”, the abundance fitness was -0.068 ± 0.062.

As for “Scaffold attachment factor B1 G27F, Q15424”, the abundance fitness is -0.246 ± 0.12.

Consider “Scaffold attachment factor B1 G27H, Q15424”, for which the abundance fitness was -0.692 ± 0.14.

Turning to “Scaffold attachment factor B1 G27I, Q15424”, the abundance fitness was -0.03 ± 0.079.

In the case of “Scaffold attachment factor B1 G27K, Q15424”, the abundance fitness was -0.204 ± 0.1.

Regarding “Scaffold attachment factor B1 G27L, Q15424”, the abundance fitness was -0.191 ± 0.057.

For “Scaffold attachment factor B1 G27M, Q15424”, the abundance fitness is -0.09 ± 0.11.

“Scaffold attachment factor B1 G27N, Q15424”: the abundance fitness was -0.187 ± 0.12.

For “Scaffold attachment factor B1 G27P, Q15424”, the abundance fitness was -0.519 ± 0.11.

With “Scaffold attachment factor B1 G27Q, Q15424”, the abundance fitness was -0.334 ± 0.08.

Regarding “Scaffold attachment factor B1 G27R, Q15424”, the abundance fitness was -0.327 ± 0.052.

As for “Scaffold attachment factor B1 G27S, Q15424”, the abundance fitness is -0.092 ± 0.07.

For “Scaffold attachment factor B1 G27V, Q15424”, the abundance fitness was -0.1 ± 0.048.

Turning to “Scaffold attachment factor B1 G27W, Q15424”, the abundance fitness was -0.559 ± 0.057.

Consider “Scaffold attachment factor B1 G27Y, Q15424”, for which the abundance fitness is -0.088 ± 0.12.

Regarding “Scaffold attachment factor B1 G52A, Q15424”, the abundance fitness is -0.538 ± 0.069.

On to “Scaffold attachment factor B1 G52C, Q15424”, for which the abundance fitness was -0.931 ± 0.082.

As for “Scaffold attachment factor B1 G52D, Q15424”, the abundance fitness is -0.691 ± 0.084.

As to “Scaffold attachment factor B1 G52E, Q15424”, the abundance fitness is -0.727 ± 0.079.

Regarding “Scaffold attachment factor B1 G52F, Q15424”, the abundance fitness was -1.25 ± 0.11.

Consider “Scaffold attachment factor B1 G52H, Q15424”, for which the abundance fitness was -1.02 ± 0.15.

For “Scaffold attachment factor B1 G52I, Q15424”, the abundance fitness was -1.72 ± 0.32.

Turning to “Scaffold attachment factor B1 G52K, Q15424”, the abundance fitness was -1.35 ± 0.18.

Take “Scaffold attachment factor B1 G52L, Q15424”: the abundance fitness is -1.34 ± 0.086.

For the substance “Scaffold attachment factor B1 G52M, Q15424”, the abundance fitness was -1.21 ± 0.077.

Take “Scaffold attachment factor B1 G52N, Q15424”: the abundance fitness was -1.45 ± 0.23.

For the substance “Scaffold attachment factor B1 G52P, Q15424”, the abundance fitness was -0.916 ± 0.079.

Take “Scaffold attachment factor B1 G52Q, Q15424”: the abundance fitness is -0.781 ± 0.066.

For the substance “Scaffold attachment factor B1 G52R, Q15424”, the abundance fitness was -1.18 ± 0.054.

With “Scaffold attachment factor B1 G52S, Q15424”, the abundance fitness was -0.786 ± 0.057.

On to “Scaffold attachment factor B1 G52T, Q15424”, for which the abundance fitness is -0.939 ± 0.078.

Consider “Scaffold attachment factor B1 G52V, Q15424”, for which the abundance fitness was -0.978 ± 0.059.

Turning to “Scaffold attachment factor B1 G52W, Q15424”, the abundance fitness was -1.2 ± 0.073.

“Scaffold attachment factor B1 G52Y, Q15424”: the abundance fitness is -1.15 ± 0.11.

“Scaffold attachment factor B1 G69C, Q15424”: the abundance fitness was -0.431 ± 0.093.

Consider “Scaffold attachment factor B1 G69D, Q15424”, for which the abundance fitness is -0.422 ± 0.17.

Turning to “Scaffold attachment factor B1 G69E, Q15424”, the abundance fitness is -0.552 ± 0.086.

Regarding “Scaffold attachment factor B1 G69H, Q15424”, the abundance fitness was -0.292 ± 0.11.

With “Scaffold attachment factor B1 G69I, Q15424”, the abundance fitness was -0.376 ± 0.084.

Regarding “Scaffold attachment factor B1 G69L, Q15424”, the abundance fitness is -0.558 ± 0.049.

As to “Scaffold attachment factor B1 G69M, Q15424”, the abundance fitness is -0.463 ± 0.096.

Take “Scaffold attachment factor B1 G69N, Q15424”: the abundance fitness is -0.248 ± 0.099.

As for “Scaffold attachment factor B1 G69P, Q15424”, the abundance fitness was -0.419 ± 0.083.

Regarding “Scaffold attachment factor B1 G69R, Q15424”, the abundance fitness was -0.25 ± 0.06.

Take “Scaffold attachment factor B1 G69S, Q15424”: the abundance fitness was -0.397 ± 0.071.

With “Scaffold attachment factor B1 G69T, Q15424”, the abundance fitness is -0.472 ± 0.077.

With “Scaffold attachment factor B1 G69V, Q15424”, the abundance fitness was -0.454 ± 0.079.

For the substance “Scaffold attachment factor B1 G69W, Q15424”, the abundance fitness is -0.658 ± 0.067.

For “Scaffold attachment factor B1 G69Y, Q15424”, the abundance fitness was -0.819 ± 0.19.

As for “Scaffold attachment factor B1 G70A, Q15424”, the abundance fitness is -0.278 ± 0.061.

Turning to “Scaffold attachment factor B1 G70C, Q15424”, the abundance fitness was -0.259 ± 0.058.

“Scaffold attachment factor B1 G70D, Q15424”: the abundance fitness was -0.354 ± 0.097.

Regarding “Scaffold attachment factor B1 G70E, Q15424”, the abundance fitness is -0.244 ± 0.072.

In the case of “Scaffold attachment factor B1 G70F, Q15424”, the abundance fitness was -0.406 ± 0.083.

Turning to “Scaffold attachment factor B1 G70H, Q15424”, the abundance fitness was -0.467 ± 0.083.

Consider “Scaffold attachment factor B1 G70K, Q15424”, for which the abundance fitness is -0.207 ± 0.081.

On to “Scaffold attachment factor B1 G70L, Q15424”, for which the abundance fitness is -0.22 ± 0.051.

Take “Scaffold attachment factor B1 G70M, Q15424”: the abundance fitness is -0.307 ± 0.064.

Regarding “Scaffold attachment factor B1 G70N, Q15424”, the abundance fitness was -0.511 ± 0.13.

As to “Scaffold attachment factor B1 G70Q, Q15424”, the abundance fitness was -0.205 ± 0.068.
